B1: mCherry-MYO10-SLC26A4-Ct (NanoSPD bait) [mouse] / μ2-MID-EGFP (NanoSPD prey) [mouse] (parent complex)
chain 1: RVQFPSWNGLGSVPSTDIYKSITHYKNLEEPEGVKILRFSSPIFYGNVDGFKKCINSTVGFDAIRVYNKRLKALRRIQKLIKKGQLRATKNGIISDIGSSNNAFEPDEDVEEPEELNIPTKEIEIQVDWNSELPVKVNVPKVPIHSLVLDCGAVSFLDVVGVRSLRMIVKEFQRIDVNVYFALLQDDVLEKMEQCGFFDDNIRKDRFFLTVHDAILHLQNQVKSREGQDSLLETVARIRDCKDPLDLMEAEMNAEELDVQDEAMRRLAS
chain 2: SETGALKTFITQQGIKSQHQTKEEQSQITSQVTGQIGWRREGIKYRRNELFLDVLESVNLLMSPQGQVLSAHVSGRVVMKSYLSGMPECKFGMNDKIVIEKQGKGTADETSKSGKQSIAIDDCTFHQCVRLSKFDSERSISFIPPDGEFELMRYRTTKDIILPFRVIPLVREVGRTKLEVKVVIKSNFKPSLLAQKIEVRIPTPLNTSGVQVICMKGKAKYKASENAIVWKIKRMAGMKESQISAEIELLPTNDKKKWARPPISMNFEVPFAPSGLKVRYLKVFEPKLNYSDHDVIKWVRYIGRSGIYETRC

Variants of: B1
Assay: NanoSPD assay; HeLa cells; mean of biological replicate means; parent: 2.7e+03; read off a plot

response [A.U.] | Variant
~190 | chain 1 Y25A
~210 | chain 1 Y19A, chain 1 Y25A, chain 1 Y45A, chain 1 Y180A
~530 | chain 1 Y19A, chain 1 Y45A, chain 1 Y180A

Variants of: B1
Assay: NanoSPD assay; HeLa cells; mean of biological replicate means; parent: 1.3e+04; read off a plot

response [A.U.] | Variant
~2000 | chain 1 L28A

Source: paper PMC11638888 (2024)
